Results as given in paper PMC9315428, “Distinctive in vitro ATP Hydrolysis Activity of AtVIPP1, a Chloroplastic ESCRT-III Superfamily Protein in Arabidopsis” (Frontiers in Plant Science, 2022).

Substrate: Nc1ncnc2c1ncn2[C@@H]1O[C@H](COP(=O)(O)OP(=O)(O)OP(=O)(O)O)[C@@H](O)[C@H]1O
Assay: malachite green (PiColorLock) Pi release, Cornish-Bowden plot
Type: biochemical, Arabidopsis thaliana
Settings: Mg2+ (2.5 mM MgCl2), pH 7.5, 37 °C, 0.5-4.0 mM ATP
Excerpt: malachite green (PiColorLock) Pi release, Cornish-Bowden plot on AtVIPP1-His

B1: AtVIPP1-His (Arabidopsis thaliana) (protein)
chain: MNLFERFSRVVKSYANALISSFEDPEKILEQTVIEMNSDLTKMRQATAQVLASQKQLQNKYKAAQQSSDDWYKRAQLALAKGDEDLAREALKRRKSFADNATALKTQLDQQKGVVDNLVSNTRLLESKIQEAKAKKDTLLARARTAKTATKVQEMIGTVNTSGALSAFEKMEEKVMAMESEADALTQIGTDELEGKFQMLETSSVDDDLADLKKELSGSSKKGELPPGRSTVAASTRYPFKDSEIENELNELRRKANDF
notes: mature protein, N-terminal transit peptide removed, C-terminal His tag kept; E. coli BL21(DE3)pLysS; homo-oligomer (spherical particles 30-50 nm, some rods)
Km: 3.21 mM
